The source of these data is the nanobody polyreactivity screen of Harvey et al. (2022).

The data set in a line: yeast display, Sf9 membrane polyspecificity reagent, FACS + sequencing; frameworks hold sequencing errors. A digest of the protocol:
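Synthetic nanobody libraries on Saccharomyces cerevisiae BJ5465 were galactose-induced for 36–48 hours, stained 1 hour at 4 °C with 10% biotinylated, detergent-solubilized Sf9 membrane reagent and enriched on streptavidin microbeads. FACS then separated cells into low and high (top ~1%) gates by anti-HA (expression) and streptavidin (reagent binding) fluorescence. Genes were colony-PCR amplified, MiSeq 2 × 250 sequenced and CDR-length filtered. A clone's polyreactivity label is that of its gate of origin.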
In the case of “QVQLVESGGGLVQAGGSLRLSCAASGRIFTFYAMGWYRQAPGKERELVAAITSGGSTYYADSVKGRFTISRDNAKKTVYLQMNSLKPEDTAVYYCNTYPGSRHGWYDYWGQVTQVTVSS”, the “polyreactivity (PSR sort gate)” value is on record as “high polyreactivity”. As to “QVQLVESGGGLVQAGGSLRLSCAASGRTGKNAMGWYRQAPVKERELVAAIRYNGGSTYYADSVKGRFTISRDNAKNTVYLQMNSLKPEDTAVYYCAAASRRHNGSAFNYWGQGTLVTVSS”, the “polyreactivity (PSR sort gate)” value was “high polyreactivity”. In the case of “QVQLVESGGALVQAGGSLRLSCAASGRTFAKYAMGWYRQAPGKERELFAAINSSGGSTYYADSVKGRFTISRDNAKNTVYLQMNSLKPEDTAVYYCADLGIGSYRRYSGYDYWGQGTQVTVSS”, the “polyreactivity (PSR sort gate)” value is recorded as “low polyreactivity”.

For “QVQLVESGGGLVQAGGSLRLSCAASGRTFTPNAMGWYRQAPGKERELVASIRRGTSTYYADSVKGRFTISRDNAKNTVYLQMNSLKPEDTAVYYCAARPFVPRVGTYSYYWGQGTQVTVSS”, the “polyreactivity (PSR sort gate)” value was “high polyreactivity”. The result for “QVQLVESGGGLVQAGGSLRLSCAASGSISSFYAMGWYRQAPGKERELVAGITSGGSTNYADSVNGRFTISRDNAKNTVYLKLNSLNPEDTAVFYCAAERTPSYRAYDYWGKGTQVTVSS” reads “low polyreactivity”.

Consider “QVQLVESGGGLVQAGGSLRLSCAASGSTFRYYTMGWYRQAAGQERELVAAITSGGGSTYYADSVKGRFTISRDNAKNTVYLQMNSLKPEDTAVYYCAARTRGTADNYWGQGTQGTVSS”, for which the “polyreactivity (PSR sort gate)” value is given as “high polyreactivity”. As to “QVQLVESGGGLVQAGGSLRLSCAASGSTIYYNAMGWYRQAPGKERELVATITSAGRTNYADSVKGRFTISRDNAKNTVSLLMNSLKPEDTAVYYCNARYRLSRYNYWGQGTQVNVSS”, the “polyreactivity (PSR sort gate)” value is “low polyreactivity”. Regarding “QVQLVESGGGLVQAGGSLRLSCAASGRNFGRNGMGWYRQAPGKERELVAAISIGDSTTYADSVKGRFTISRDNAKNTVYLQMNSLKPEDTAVFYCAAELERYPVWEYRGKYDYWGQGTQVTVSS”, the “polyreactivity (PSR sort gate)” value was “low polyreactivity”. As to “QVQLVESGGGLVQAGGSLRLSCAASGGILVFYAMGWYRQAPGKERELVAAITKRGTSTYYADSVKGRFTISRDIEKNTVYLQMNSLKPEDTAVYYCAAESIPYYRYDYWGQGSQVTVSS”, the “polyreactivity (PSR sort gate)” value is “low polyreactivity”. In the case of “QVQLVESGGGLVQAGGSLRLSCAASGSTFSNNAMGWYRQAPGKERELVASTNYADSVKGRFTISRDNAKNTVYLQMNSLKPEDTAVYYCAAGAYPSWGHDYWGQGTQVTVSS”, the “polyreactivity (PSR sort gate)” value is reported as “low polyreactivity”. The entry for “QVQLVESGGGLVQAGGSLRLSCAASGITFAYYAMGRSRQAPGKERELVAAIRWSGGDTYYADSVKGRFTISRDNAKNTVYLQMNSLKPEDTAVYYCAADTTWGYDYWGQGTQVTVSS” is “low polyreactivity”; for “QVQLVESGGGLVQAGGSLRLSCAASGFIVRRYAMGWYRQAPGKERELVAAITSSGTSTYYADSVKGRFTISRDTAKYTVYLQMNSLKPEDTAVYYCAAVYQYTHYYSNYRYWGQGTQVTVSS” it is “high polyreactivity”. As to “QVQLVESGGGLVQAGGSLRVSCAASGSTFTWYAMGWYRQAPGKVRELVAAIRWSGGNTYYADSVKGRFTISRDNAKNTVFLQMNSLKPEDTAVYYCNAYQYFPRYDYWGQGTQVTVSS”, the “polyreactivity (PSR sort gate)” value is “high polyreactivity”. For the sequence “QVQLVESGGGLVQAGGSLRLSCAASGSTFQPNAMGWYRQAPGKERELVAISSGDDTYYADSVKGRFTISRDKAKNTVYFQMNSLIPEDSAVYYCAAEYSFIYYWGQGTQVTVSS”, the “polyreactivity (PSR sort gate)” value is recorded as “low polyreactivity”. As to “QVQLVESGGGLVQAGGSLRLSCAASGRIFYGYSMGWSRQATGKEWELVAAISSSGGSTYYADSVKGRFTISRDNAKNTVSLQRNSVKPEDTAVYYCNAQRYRPGYWYDYWGQGTQVTVSS”, the “polyreactivity (PSR sort gate)” value was “high polyreactivity”. “QVQLVASGGGLVQAGGSLRLSCAASGRIFSSNAMGWSRQAPGKEWELVAAITKSGGGTYYADSVKGRFTISRDNAKNTVYLQLNSLKPEDTAVYYCAKGQYRSSGYDYWGQGTQVTVSS”: the “polyreactivity (PSR sort gate)” value is recorded as “low polyreactivity”.

For “QVQLVESGGGLVQAGGSLRLSCAASGRIFYMNAMGWYRQAPGKERELVAGITNSTTGTYYADSVKGRFTISRDNAKNTVYLQMNSLKPEDTAVYYCNTDVAYEEPVETYDYWGQGTQVTVSS”, the “polyreactivity (PSR sort gate)” value is reported as “low polyreactivity”. With “QVHLVESGGGLVQAGGSLRLSCAASGSTCYWYTMGWYRKAPGKERELVARISSSGSTNYADSVKGRFTISRDNEKNTVYLLMNILKAEDTAVYYCNIDWFYRGYDYWGQGTQVTVSS”, the “polyreactivity (PSR sort gate)” value was “high polyreactivity”. For “QVQLVESGGGLVQAGGSLRLSCSASGITFEGYAMGGYRQAPGKERELVAAIRSSGTSRYYADSVKGRFTISRDNAKNTVYLQMNSQKPEDTAVYYCNRARSSSRYDYWGQGTQVTVSS”, the “polyreactivity (PSR sort gate)” value is listed as “low polyreactivity”. Turning to “QVQLVESGGGLVQAGGSLRLSCAASGSIFTTYAMGWYREAPGKERELVAAITDTSSTNYADSVKGRFTISRDNAKKTVFLQMNSLKPEDTAVYYCAVDLGYEYDWGQGTQVTVSS”, the “polyreactivity (PSR sort gate)” value was “low polyreactivity”.

Turning to “QVQLVESGGGLVQAGGSLRLSCAASGFNFQRYAMGWYRQAPGKERELVAAISVRGTRTYYADSVKGRFTISRDKAKNTVYFQMYSLKPVDTAVYYCNADWERDVQDEYWGQGTHVTVSS”, the “polyreactivity (PSR sort gate)” value is “high polyreactivity”. “QVQLVESGGGLVQAGGSLRLSCAASGSTIDTNAMGWYRQAPGTDRELVAAITSGGNTYADSVKGRFTISRDNAKNTVYLQMNSLKPEDTAVYYCAAEDVYTGWYDYCGQGTQVTVSS”: the “polyreactivity (PSR sort gate)” value is “low polyreactivity”. The entry for “QVQLVESGGGLVQAGGSLRLSCAASGISSWYYAMGWYRQAPGKERELVAAITSDGRTNYADSVKGRFTISRDNAKNTVYLQMKSLKPEDTAVYYCAAARRVGVSHYRYGYWGHGTQVTVSS” is “high polyreactivity”; for “QEQLQESGGGLVQAGDSPRLSCAESGYISARTGMGSYRQAPGKEREFVAGIASGTSTHYADSVKGRFTISRDNAKNAVYLQMNSLKPEDTAVYYCAKDYRYIFIYPYGWTRYDYWGQGTQVTVSS” it is “low polyreactivity”; for “QVQLVESGGGLVQAGGSLRLSCAASGRIFKGYAMGWYRKAPGKERELVAAITISGGSTYYADSVKGRFTISRDNAKNTVYLQMNSLIPEDTAVFYFAARKFVYWYGMEYWGQGTQVTVSS” it is “low polyreactivity”. On to “QVQLVESGGGLVQAGGSLRLSCAASGRTYTRYALGWYRQAPGKERELVAAISGGGGSTYYADSVKGRFTISRDNAKNTVYLQMNSLKPEDTAVYYCNAAARGSSFDYWGQGTQVTVSS”, for which the “polyreactivity (PSR sort gate)” value was “low polyreactivity”.

As to “QVQLVESGGGLVQAGGSLRLSCAASGRTFRRYTMGWYRPAPGKERELVAAITTSGGSTYYADSVKGRFTLSRDNAKNTVYLQMNSLKPEDTAVYYCAATRRYSGDYWGQGTQVTVSS”, the “polyreactivity (PSR sort gate)” value is reported as “high polyreactivity”. “QVQLVESGGGLVLAGGSLRLSCAASGSTFEYNAMGWYRPAPGKERELVASSTNYADSVKGRFTISRDNAKNTVSLQRNSLKPEDTAVNYSAREQGVNRNHDYWGQGTQVTVSS”: the “polyreactivity (PSR sort gate)” value is “low polyreactivity”.

Regarding “QVQLVESGGGLVHAGGSLRLSCASSGSTFFTNAMGWYRQAPGKERELVAAITINDGSTFYADSVKGRFTISRDNAKNTVYLQMNSLNPEDTAVYYCNADGVDLYDYWGQCTQVTVSS”, the “polyreactivity (PSR sort gate)” value is on record as “low polyreactivity”. For the sequence “QVQLVESGGGLVQAGGRLRLSCDASGSTFVKYAMGWYRQAPGKERELVARISSSGGSTYYADSVKGRFTISRDNAKNTVFLQMNSLKPEDTAVYYCAAPSLIAKYDYWGQGTHVTVSS”, the “polyreactivity (PSR sort gate)” value is recorded as “high polyreactivity”.

Take “QVQLVESGGGLVQAGGSLRLSCAASGRIFYAYAMGWYRQAPGKEREFVAAISWGGGSTNYADSVKGRFTISRDNAKNTVYLQMNSLKPEDTAVYYCATGFYYYLTKTIPYEYEYWGQGTQVTVSS”: the “polyreactivity (PSR sort gate)” value is “low polyreactivity”. Turning to “QVQRVESGGGLVQAGGSLRLSCAASGGIFAVNVMGWYRPAPGKERELVAAITSTGSTYYADSVKGRFTISRDNAKNTVYLQMNSLKPEDTAVYYCAADYVYYDSYDDTVFGYEYWGQGTQVTVSS”, the “polyreactivity (PSR sort gate)” value was “high polyreactivity”. With “QVQLVESGGGLVQAGGSLRLSCASSGITFPGNAMGWYRQAPGKERELVAGISDGDSTNYADSVKGRFTISRDNAKNTVYLQMNSLKPEVTAVYYCNAQGTTETSGGGFFRGMDYWGQGTQVTVSS”, the “polyreactivity (PSR sort gate)” value is given as “low polyreactivity”. The result for “QVQLVESVGGLVQAGGSLRLSCAASGSIFYDNGMGWYRQAPGNERELVAAISRGGTTNYADSVKGRFTISRDKAKNTVYLQMNSLKPEDTAVYYCNAETRFTYWGSWYDYWGQGTQVTVSS” reads “low polyreactivity”.

As for “QVQLVESGGGLVQEGGSLRLSCAASGFSFERNAMGWDRQAPGKERELVATIPWSGTRTNYADSVKGRFTISRDNAKNTVYVQMNSLKPEDTAVYYCAVVVSAPSRESKSTVQMDYWGQGTQVTVSS”, the “polyreactivity (PSR sort gate)” value is reported as “high polyreactivity”. Regarding “KVQLLESGGGLFQAGGSVRLSCAASGSIIFTYAMGWSRQSPGTEREWVAVITWCGGSTYYADSVKGRFTISRDYAKNTVYLQMNSLKPEDTAVYYCAKDSYYYRRDVTVDYWVQGTQVTVSS”, the “polyreactivity (PSR sort gate)” value is given as “low polyreactivity”. The entry for “QVQLVESGGGLVQAGGSLRLSCAASGKTFRYNAMGWYRQAPGKERELVAAISRRGGSTYYADSVKGRFTISRDNAKNTVYLQMNSLKPEDTAVYYCNAGRTAENEYWGQGTQVTVSS” is “high polyreactivity”; for “QVQLVESGGGLVQAGGSLRLSCAASGSTFGVYAMGWYRQAPGKERELVAAINARGTRTRYADSVKGRFTISRDNAKNTVYLQMTSMKPEDTAVYYCAAVWYGYYSIDTDGYWGQGSQVTVSS” it is “high polyreactivity”. Consider “QLQLEESGGGLVQAGGSLRLSCAASRRIIVGYAKGRYRQAPGKEREFVAAITFRGGTTYYADSVKGRLTISRDNAKNTVYLQMNSLNQEDSAVYYCAVPHYLYSVEFGYWGQGTQVTVSS”, for which the “polyreactivity (PSR sort gate)” value is “low polyreactivity”. Regarding “QVQLVESGGGLVQAGGSLRLSCAASGRIITKYNTMGCYRPATGIEMELVAAINRSAGSTYYADSVKGRFTISRDNAKNTVYLQMNSLKTEDTAVYYCAAKRGASYGSSLGAPRRHYDEYWGQGTQVTVSS”, the “polyreactivity (PSR sort gate)” value was “low polyreactivity”. On to “QVQLVESGGGLVQAGGSLRLSCAASGFTFGYYAMGWYRQAPGKERELVASISSGGSTNYADSVKGRFTISRDNAKNTVYLQMNSLKPEDTAVYYCNKRAYYGRYDYWGQGTQVTVSS”, for which the “polyreactivity (PSR sort gate)” value is listed as “high polyreactivity”.
